In publication PMC9982585:

Target: Type I Human Collagen (human) (UniProt P02452)
Assay: fluorescence polarisation; Cy5.5-labelled insulin formulated in saline (control) or in aCH (SPADE), mixed with a Type I human collagen solution at a predetermined w/w ratio; read immediately after mixing on a Molecular Devices Flexstation 3 plate reader

Sequence of UniProt P02452 (P02452 162-1218, chain 1 of 2): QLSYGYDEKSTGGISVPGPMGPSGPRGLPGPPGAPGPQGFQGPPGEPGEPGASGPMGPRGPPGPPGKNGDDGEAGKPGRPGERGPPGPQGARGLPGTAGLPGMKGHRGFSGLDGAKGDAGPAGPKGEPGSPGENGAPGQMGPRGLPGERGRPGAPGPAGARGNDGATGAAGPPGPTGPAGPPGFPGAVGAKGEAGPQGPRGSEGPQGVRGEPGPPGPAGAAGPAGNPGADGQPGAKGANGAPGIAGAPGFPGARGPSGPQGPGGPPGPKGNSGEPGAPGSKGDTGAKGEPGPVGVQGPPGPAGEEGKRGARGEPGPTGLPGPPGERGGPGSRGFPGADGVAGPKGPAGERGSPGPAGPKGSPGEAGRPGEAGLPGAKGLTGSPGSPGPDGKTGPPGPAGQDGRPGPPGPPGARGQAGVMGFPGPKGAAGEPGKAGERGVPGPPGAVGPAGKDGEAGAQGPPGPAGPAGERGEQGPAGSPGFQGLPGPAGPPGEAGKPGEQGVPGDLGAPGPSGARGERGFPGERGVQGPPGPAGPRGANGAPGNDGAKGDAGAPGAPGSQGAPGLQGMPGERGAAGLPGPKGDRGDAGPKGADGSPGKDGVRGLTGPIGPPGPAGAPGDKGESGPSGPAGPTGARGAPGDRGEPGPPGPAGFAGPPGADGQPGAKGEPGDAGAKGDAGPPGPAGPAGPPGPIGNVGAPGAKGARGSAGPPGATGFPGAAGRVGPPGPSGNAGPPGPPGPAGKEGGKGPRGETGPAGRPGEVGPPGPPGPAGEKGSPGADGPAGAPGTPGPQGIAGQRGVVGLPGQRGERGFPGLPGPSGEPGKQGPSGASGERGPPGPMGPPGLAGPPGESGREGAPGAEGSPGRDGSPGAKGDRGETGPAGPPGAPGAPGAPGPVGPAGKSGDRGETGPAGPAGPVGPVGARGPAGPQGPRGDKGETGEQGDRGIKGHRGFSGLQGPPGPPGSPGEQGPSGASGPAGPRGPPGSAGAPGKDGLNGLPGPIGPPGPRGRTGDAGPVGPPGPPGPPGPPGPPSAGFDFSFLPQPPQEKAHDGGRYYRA
Sequence of UniProt P02452 (P08123 80-1119, chain 2 of 2, further chain): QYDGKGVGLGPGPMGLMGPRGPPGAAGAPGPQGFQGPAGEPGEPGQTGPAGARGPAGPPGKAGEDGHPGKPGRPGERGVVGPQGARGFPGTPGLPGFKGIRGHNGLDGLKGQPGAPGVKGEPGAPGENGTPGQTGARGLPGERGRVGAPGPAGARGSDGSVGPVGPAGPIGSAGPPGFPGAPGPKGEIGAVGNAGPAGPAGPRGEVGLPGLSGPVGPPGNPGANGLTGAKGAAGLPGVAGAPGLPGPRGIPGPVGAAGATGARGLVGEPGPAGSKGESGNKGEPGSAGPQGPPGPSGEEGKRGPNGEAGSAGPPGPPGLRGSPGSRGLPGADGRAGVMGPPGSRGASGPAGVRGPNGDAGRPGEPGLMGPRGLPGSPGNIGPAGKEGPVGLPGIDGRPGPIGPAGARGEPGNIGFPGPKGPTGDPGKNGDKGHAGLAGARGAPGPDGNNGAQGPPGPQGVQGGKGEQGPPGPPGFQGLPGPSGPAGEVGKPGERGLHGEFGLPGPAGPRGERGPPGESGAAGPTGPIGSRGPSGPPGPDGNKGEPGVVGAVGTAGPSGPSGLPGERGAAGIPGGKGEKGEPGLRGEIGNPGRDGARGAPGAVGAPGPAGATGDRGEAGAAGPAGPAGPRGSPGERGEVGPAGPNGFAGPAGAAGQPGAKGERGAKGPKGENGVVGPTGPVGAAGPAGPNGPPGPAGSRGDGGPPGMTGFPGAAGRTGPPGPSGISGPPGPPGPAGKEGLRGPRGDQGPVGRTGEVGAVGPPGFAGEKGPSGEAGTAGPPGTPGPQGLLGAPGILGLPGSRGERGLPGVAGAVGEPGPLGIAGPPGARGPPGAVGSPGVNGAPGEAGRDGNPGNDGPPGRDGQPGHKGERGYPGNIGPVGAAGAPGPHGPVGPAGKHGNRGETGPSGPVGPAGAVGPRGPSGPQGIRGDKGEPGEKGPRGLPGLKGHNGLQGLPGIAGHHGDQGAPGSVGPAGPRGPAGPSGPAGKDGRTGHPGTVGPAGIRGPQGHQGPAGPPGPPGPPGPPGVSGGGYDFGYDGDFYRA

average polarisation of the saline control relative to the aCH (SPADE) formulation: 1.5 fold
Substance: Cy 5.5 fluorescently-labeled insulin (ligand)
